Measured values as given in patent US12570744 (AstraZeneca / MedImmune, dated 2026).
Where a chain is given by its changes, count along the chain named. Blank lines part the entries; values can stand above or below the binder they belong to.

How the values were obtained:
[1] = biological target: T1, human TIGIT expressed on the cell surface (human, UniProt Q495A1 22-244); assay: flow cytometry on TIGIT^+ Jurkat cells (the reference itself)
T1 construct: whole, on cells; also called Jurkat PD-1^-TIGIT^+ cells; TIGIT^+ Jurkat cells
T1 sequence (looked up): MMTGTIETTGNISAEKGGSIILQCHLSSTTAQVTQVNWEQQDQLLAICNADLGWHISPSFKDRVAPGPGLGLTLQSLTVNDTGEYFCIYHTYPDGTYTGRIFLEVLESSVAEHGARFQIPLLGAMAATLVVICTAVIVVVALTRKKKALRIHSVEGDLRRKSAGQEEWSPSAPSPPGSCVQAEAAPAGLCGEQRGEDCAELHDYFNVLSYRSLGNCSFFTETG

[2] = biological target: T1, human TIGIT expressed on the cell …; assay: flow cytometry on TIGIT^+ Jurkat cells, mean of two experiments
[3] = biological target: T1, human TIGIT expressed on the cell …; assay: flow cytometry on TIGIT^+ Jurkat cells, Experiment #1
[4] = biological target: T1, human TIGIT expressed on the cell …; assay: cell-based or functional assay
[5] = biological target: T1, human TIGIT expressed on the cell …; assay: flow cytometry on TIGIT^+ Jurkat cells, Experiment #2
[6] = biological target: T2, cynomolgus TIGIT overexpressed on 293 cells (cynomolgus, UniProt A0A7N9I9V4 89-312); assay: flow cytometry (MFI) on 293 cells overexpressing cynomolgus TIGIT; Kd row of the table under the graph, the concentration axis is [nM]
T2 construct: whole, on cells
T2 sequence (A0A7N9I9V4 entry or part of it): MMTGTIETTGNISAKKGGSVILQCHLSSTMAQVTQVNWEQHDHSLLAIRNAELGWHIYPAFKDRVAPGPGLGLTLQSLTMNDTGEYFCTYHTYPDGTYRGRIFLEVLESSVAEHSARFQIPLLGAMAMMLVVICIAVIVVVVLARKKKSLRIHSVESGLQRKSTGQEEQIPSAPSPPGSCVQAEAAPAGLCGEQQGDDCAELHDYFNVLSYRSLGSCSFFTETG

[7] = biological target: T1, human TIGIT expressed on the cell …; assay: flow cytometry (MFI) on 293 cells overexpressing human TIGIT; Kd row of the table under the graph, the concentration axis is [nM]
[8] = biological target: T1, human TIGIT expressed on the cell …; assay: flow cytometry (MFI) on 293 cells overexpressing human TIGIT
[9] = biological target: T3, recombinant human TIGIT protein (human, UniProt Q495A1 22-141); assay: SPR (BIAcore T200), PD-1/TIGIT DuetMab sample, huTIGIT as ligand
T3 construct: In the Octet assay it was used biotinylated on streptavidin sensors or in solution; Construct and tags are not described; also called huTIGIT; human TIGIT antigen
T3 sequence (looked up): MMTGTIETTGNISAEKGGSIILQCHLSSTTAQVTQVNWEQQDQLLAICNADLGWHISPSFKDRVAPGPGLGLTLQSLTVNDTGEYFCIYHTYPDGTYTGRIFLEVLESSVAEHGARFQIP
Protocol: (§1) Binding experiments were carried out using a BIAcore T200 instrument (BIAcore).

[10] = biological target: T4, cyTIGIT (cynomolgus TIGIT, recombinant) (cynomolgus, UniProt A0A7N9I9V4 89-209); assay: SPR (BIAcore T200), PD-1/TIGIT DuetMab sample, cyTIGIT as ligand
T4 construct: Ligand in the BIAcore assay; The construct is not described
T4 sequence (A0A7N9I9V4 entry or part of it): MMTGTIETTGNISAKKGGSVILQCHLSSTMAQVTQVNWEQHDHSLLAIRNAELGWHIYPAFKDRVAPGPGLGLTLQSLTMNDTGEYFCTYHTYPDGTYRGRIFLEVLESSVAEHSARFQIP
Protocol: as §1

[11] = biological target: T5, muTIGIT (mouse TIGIT, recombinant) (mouse (printed as 'mu'), UniProt P86176 29-148, limits assumed); assay: SPR (BIAcore T200), PD-1/TIGIT DuetMab sample, muTIGIT as ligand
T5 construct: Ligand in the BIAcore assay; The construct is not described
T5 sequence (looked up): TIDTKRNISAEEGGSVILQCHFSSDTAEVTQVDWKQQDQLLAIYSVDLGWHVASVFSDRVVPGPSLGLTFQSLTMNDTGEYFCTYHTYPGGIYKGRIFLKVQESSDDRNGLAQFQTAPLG
Protocol: as §1

[12] = biological target: T6, human PD-1 expressed on the cell surface of engineered Jurkat cells (human, UniProt Q15116 25-288); assay: flow cytometry on PD-1^+ Jurkat cells, Experiment #2
T6 construct: whole, on cells; also called Jurkat PD-1^+TIGIT^- cells; PD-1^+ Jurkat cells
T6 sequence (Q15116 25-288, change not shown): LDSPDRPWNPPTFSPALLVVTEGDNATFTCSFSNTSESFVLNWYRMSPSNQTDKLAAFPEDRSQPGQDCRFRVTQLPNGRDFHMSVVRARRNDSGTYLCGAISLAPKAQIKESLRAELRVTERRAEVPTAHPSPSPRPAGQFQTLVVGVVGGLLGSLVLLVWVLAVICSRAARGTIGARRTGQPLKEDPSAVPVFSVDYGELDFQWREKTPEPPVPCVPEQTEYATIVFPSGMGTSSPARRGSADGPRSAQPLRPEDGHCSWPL

[13] = biological target: T6, human PD-1 expressed on the cell …; assay: flow cytometry on PD-1^+ Jurkat cells (the reference itself)
[14] = biological target: T6, human PD-1 expressed on the cell …; assay: cell-based or functional assay
[15] = biological target: T6, human PD-1 expressed on the cell …; assay: flow cytometry on PD-1^+ Jurkat cells, Experiment #1
[16] = biological target: T6, human PD-1 expressed on the cell …; assay: flow cytometry on PD-1^+ Jurkat cells, mean of two experiments

B2: VL WT + VH GL (VAR1 variant DuetMab) (bispecific antibody, V domains shown)
VH 1: EVQLVESGGGLVQPGGSLRLSCAASGFTFSDYGMHWVRQAPGKGLEWVAYISSGSYTIYSADSVKGRFTISRDNAKNSLYLQMNSLRAEDTAVYYCARRAPNSFYEYYFDYWGQGTTVTVSS
VL 1: QIVLTQSPATLSLSPGERATLSCSASSKHTNLYWSRHMYWYQQKPGQAPRLLIYLTSNRATGIPARFSGSGSGTDFTLTISSLEPEDFAVYYCQQWSSNPFTFGQGTKLEIK
VH 2: QVQLVESGGGVVQPGRSLRLSCAASGFTFSSYAMHWVRQAPGKGLEWVAVISYAGEVKYYADSVKGRFTISRDNSKNTLYLQMNSLRAEDTAVYYCARDPLPLHYYGMDVWGQGTTVTVSS
VL 2: QSALTQPRSASGNPGQRVTISCSGSSSNMGRRPVNWYQQIPGTAPKLLIYSQNQRPSGVPDRFSGSQSGTSASLTISGLQSEDEAEYFCAVWDDIGRVLQLGGGTQLAVL
Kd [6]: 10.8 nM
Kd [7]: 3.09 nM

B3: VL GL + VH WT (VAR1 variant DuetMab) (bispecific antibody)
chain 1: B2 VH 1
chain 2: B2 VL 1
chain 3: B2 VH 2 with Q1E, S7T, V11L, V12I
chain 4: B2 VL 2 with A3V, R8P, N13T, I40L, T75A, E86D, A108T
Kd [6]: 23.6 nM
EC50 (read off the curve) [8]: ~4 nM
Kd [7]: 4.43 nM

B4: VL GL + VH GL (VAR1 variant DuetMab) (bispecific antibody)
chain 1: B2 VH 1
chain 2: B2 VL 1
chain 3: B2 VH 2
chain 4: B2 VL 2 with A3V, R8P, N13T, I40L, T75A, E86D, A108T
Kd [6]: 14.7 nM
Kd [7]: 3.28 nM

B5: PD1-TIGIT duetMab LO115/P-VAR1(VHWT-VLWT) (bispecific antibody, V domains shown)
VH 1: B2 VH 1
VL 1: B2 VL 1
VH 2: B2 VH 2 with Q1E, S7T, V11L, V12I
VL 2: B2 VL 2
notes: DuetMab format; also called parental VAR1; P-VAR1 w.t; DuetMab
Kd [9]: 0.0099 nM
koff [9]: 4.64e-05 s⁻¹
kon [9]: 4.67e+06 M⁻¹ s⁻¹
Kd [6]: 11.2 nM
Kd [10]: 32.1 nM
koff [10]: 0.0329 s⁻¹
kon [10]: 1.03e+06 M⁻¹ s⁻¹
Kd [11]: 2.3 nM
koff [11]: 0.00378 s⁻¹
kon [11]: 1.66e+06 M⁻¹ s⁻¹
EC50 (read off the curve) [8]: ~2 nM
Kd [7]: 2.56 nM

Now from value to binder:

Fold Change vs. anti-TIGIT (mean EC50) [1]: 1 fold
EC50 [2]: 0.119 nM
EC50 [3]: 0.092 nM
EC50 (nM), NFAT-luciferase reporter, Experiment #1 [4]: 1.59 nM
EC50 (nM), NFAT-luciferase reporter, Experiment #2 [4]: 2.85 nM
Fold Change of Mean EC50 vs. Anti-TIGIT [4]: 1 fold
Mean EC50 (nM), NFAT-luciferase reporter [4]: 2.22 nM
EC50 [5]: 0.147 nM
B1: monospecific anti-TIGIT (VAR1) bivalent mAb (antibody, V domains shown)
VH: B2 VH 2
VL: B2 VL 2 with A3V, R8P, N13T, M29I, I40L, T75A, E86D, A108T
notes: Bivalent mAb; also called anti-TIGIT mAb; bivalent anti-TIGIT antibody

EC50 [12]: 0.985 nM
Fold Change vs. anti-PD-1 (mean EC50) [13]: 1 fold
EC50 (nM), NFAT-luciferase reporter, Experiment #1 [14]: 1.93 nM
EC50 (nM), NFAT-luciferase reporter, Experiment #2 [14]: 4.14 nM
Fold Change of Mean EC50 vs. Anti-PD-1 [14]: 1 fold
Mean EC50 (nM), NFAT-luciferase reporter [14]: 3.03 nM
EC50 [15]: 0.349 nM
EC50 [16]: 0.667 nM
B6: monospecific anti-PD1 (LO115) bivalent mAb (antibody, V domains shown)
VH: B2 VH 1
VL: B2 VL 1
notes: Bivalent mAb; also called bivalent anti-PD-1 antibody; parental bivalent anti-PD-1 antibody
